Reference: patent US20050249698A1 (priority 2002, published 2005)

Assays:
Type in all cases: in vivo, Balb/c mice
normal mice [1] = assay: Test 1: peripheral blood cell counts, sOGP for 5 days then sOGP and rhG-CSF co-administered
Protocol: (§1) The clean grade of the Balb/c mice, weighed from 16 to 18 g, were used and randomly grouped, 7-10 mice per group. The tests were carried out in two batches.
(§2) The mice were divided into 4 groups.
(§3) The mice in each group were sacrificed on the 14th day.
(§4) The detection indexes were as follows: • (1) The counts of the peripheral blood leucocytes (WBC), the peripheral blood lymphocytes (LY), red blood cells (RBCs) and the change of platelet were determined for each group on the first day (no drug was administered), the 5th, 8th, 10th, 12th and 14th day. • (2) The counts of marrow karyotes (BMNC) of the mice in each group and the change of the classification of the marrow were determined on the 14th day. • (3) The sections of the sternum of the mice in each group were determined on the 14th day. • (4) The weights of the spleens of the mice in each group and the sections of the […] were determined on the 14th day.

normal mice [2] = assay: Test 1: marrow karyote count and classification of the thighbone; details: 14th day, x±SE
Protocol: as §1, §2, §3, §4

normal mice [3] = assay: Test 1: pathologic observation of breastbone (sternum) sections; details: 14th day, Test 1, FIG. 3
Protocol: as §1, §2, §3, §4

normal mice [4] = assay: Test 1: spleen weight
Protocol: as §1, §2, §3, §4

normal mice [5] = assay: Test 1: pathologic observation of spleen sections; details: 14th day, Test 1, FIG. 4
Protocol: as §1, §2, §3, §4

normal mice [6] = assay: Test 2: marrow karyote count of the thighbone; details: 11th day, Test 2, simultaneous administration; x±SE
Protocol: as §1, §2
(§5) The mice in each group were sacrificed on the eleventh day.
(§6) The detection indexes were as follows: • (1) The counts of the peripheral blood leucocytes of the mice in each group were determined on the first day (no drug was administered), the 3rd, 5th, 7th, 9th and 11th day. • (2) The counts of marrow karyotes (BMNC) of the mice in each group were determined on the 11th day. • (3) The weights of the spleens of the mice in each group were determined on the 11th day.

normal mice [7] = assay: Test 2: spleen weight
Protocol: as §1, §2, §5, §6

[8] = Test 1, sOGP 5 days then co-administration, x±SE

B1: rhG-CSF: commercially available recombinant human granulocyte colony stimulating factor (protein, UniProt P09919 31-207, looked up)
Granulocyte …: TPLGPASSLPQSFLLKCLEQVRKIQGDGAALQEKLVSECATYKLCHPEELVLLGHSLGIPWAPLSSCPSQALQLAGCLSQLHSGLFLYQGLLQALEGISPELGPTLDTLQLDVADFATTIWQQMEELGMAPALQPTQGAMPAFASAFQRRAGGVLVASHLQSFLEVSYRVLRHLAQP
% leucocyte granulocyte (normal mice [1]; [8]): 70.39 ± 1.54% | % leucocyte lymphocyte (normal mice [1]; [8]): 29.61 ± 1.54% | leucocyte (normal mice [1]; Test 1, x±SE): 17.59 ± 1.59 ×10^6/ml | platelet (normal mice [1]; Test 1, x±SE): 505.43 ± 35.34 ×10^6/ml | red blood cell (normal mice [1]; Test 1, x±SE): 6.68 ± 0.10 ×10^9/ml | karyote/thighbone (normal mice [2]): 1.90 ± 0.13 ×10^7 | marrow: early erythroblast (normal mice [2]; thighbone marrow): 2.50 ± 0.33% | marrow: intermediate erythroblast (normal mice [2]; thighbone marrow): 12.13 ± 1.92% | marrow: late erythroblast (normal mice [2]; thighbone marrow): 16.00 ± 2.11% | marrow: lymphocyte, plasma cell (normal mice [2]; thighbone marrow): 19.38 ± 2.00% | marrow: matured granulocyte (normal mice [2]; thighbone marrow): 30.83 ± 2.77% | marrow: myelocyte, metamyelocyte (normal mice [2]; thighbone marrow): 11.00 ± 1.00% | marrow: primitive granulocyte (normal mice [2]; thighbone marrow): 0.63 ± 0.36% | marrow: promyelocyte (normal mice [2]; thighbone marrow): 1.88 ± 0.44% | pathologic observation of bone marrow cells in breastbone section (normal mice [3]): the proliferation of the bone marrow cells and the ratios among the three cell lines were normal | spleen weight (normal mice [4]; 14th day, Test 1, x±SE): 0.252 ± 0.007 g | spleen weight compared with the other two groups (control, sOGP) (normal mice [4]; Test 1, Table 3): significantly higher | spleen section: matured granulocytes as share of the granulocytes (normal mice [5]): about 60% | spleen section: megakaryocyte cell line (normal mice [5]): moderately proliferated | spleen section: red matter (normal mice [5]): proliferated moderately | spleen section: white matter (normal mice [5]): lightly to moderately shrunk | karyote number/thighbone (normal mice [6]): 1.75 ± 0.12 ×10^7 | spleen weight (normal mice [7]; 11th day, Test 2, simultaneous administration, x±SE): 0.244 ± 0.017 g | spleen weight compared with the other two groups (control, sOGP) (normal mice [7]; Test 2, Table 5): significantly higher
